Source: paper doi:10.1101/2024.04.02.587704

Target: ReoM-His from the ΔprkA ΔmurZ strain LMPR29 (unphosphorylated at Thr-7) (L. monocytogenes) (UniProt B8DE07)
Assay: cross-linking + pull-down

UniProt B8DE07, sequence (B8DE07 whole entry, stated change not applied): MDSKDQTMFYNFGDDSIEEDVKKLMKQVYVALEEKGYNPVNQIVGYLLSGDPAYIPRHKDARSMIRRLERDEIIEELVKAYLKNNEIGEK

B1: MurA (L. monocytogenes UDP-N-acetylglucosamine 1-carboxyvinyltransferase) (enzyme)
chain: MEKIIVRGGKQLNGSVKMEGAKNAVLPVIAATLLASKGTSVLKNVPNLSDVFTINEVLKYLNADVSFVNDEVTVDATGEITSDAPFEYVRKMRASIVVMGPLLARTGSARVALPGGCAIGSRPVDLHLKGFEAMGAVVKIENGYIEATAEKLVGAKVYLDFPSVGATQNIMMAATLAEGTTVIENVAREPEIVDLANFLNQMGARVIGAGTEVIRIEGVKELTATEHSIIPDRIEAGTFMIAAAITGGNVLIEDAVPEHISSLIAKLEEMGVQIIEEENGIRVIGPDKLKAVDVKTMPHPGFPTDMQSQMMVIQMLSEGTSIMTETVFENRFMHVEEMRRMNADMKIEGHSVIISGPAKLQGAEVAATDLRAAAALILAGLVADGYTQVTELKYLDRGYNNFHGKLQALGADVERVDDSKVDVTNLASLF
  fold MurA copurified, against the prkA+ strain: 3 fold
